Reference: patent US20220411492A1 (QILU PHARMACEUTICAL, published 2022)

Columns and labels:
[1] = biological target: T1, human Claudin 18.2 (hCLDN18.2) (human, UniProt P56856-2 1-261); experiment: FACS, HEK293-hCLDN18.2 cells
T1 construct: whole, on cells; also called CLDN18A2; claudin 18 splice variant 2
Excerpt: (§1) FACS was used to detect the binding of anti-CLDN18.2 chimeric antibodies to HEK293 cells stably transfected expressing hCLDN18.2 (HEK293-hCLDN18.2) and gastric cancer tumor tissue-derived cells naturally expressing hCLDN18.2 (PDX-hCLDN18.2).

[2] = biological target: T1, human Claudin 18.2 (hCLDN18.2); experiment: cell-based or functional assay
[3] = biological target: T1, human Claudin 18.2 (hCLDN18.2); experiment: FACS, PDX-hCLDN18.2 gastric cancer tumor tissue-derived cells
Excerpt: as §1

[4] = biological target: murine CLDN18.2 (mCLDN18.2) (murine) (UniProt P56857); experiment: FACS, HEK293-mCLDN18.2 cells
[5] = biological target: T1, human Claudin 18.2 (hCLDN18.2); experiment: cell-based or functional assay; remark: listed apart in the source

Binder	EC50 [1] [nM]	Mean maximum fluorescence intensity (Top MFI) [1] [MFI]	ADCC EC50 [2] [µg/mL]	ADCC Maximum lysis (%) [2] [%]	EC50 [3] [nM]	Mean maximum fluorescence intensity (Top MFI) [3] [MFI]	EC50 [4] [nM]	Mean maximum fluorescence intensity (Top MFI) [4] [MFI]	CDC EC50 [5] [µg/mL]	CDC Maximum lysis (%) [5] [%]
ch-32G8 (antibody, V domains shown, also called chimeric antibody of clone 32G8) VH: EVHLQQSGPVLVKPGASVKMSCKASGYTFTDYHMNWVKQSHGKSLEWIGVINPYNGGIRYNQKFKGKATLTVDKSSSTAYMELNSLTSEDSAVYYCATIYYGNSFAYWGQGTLVTVSA VL: DIVMTQSPSSLTVTAGEKVTMSCKSSQSLLNSGNQKNYLTWYQQKPGQPPKLLIYWASTRESGVPDRFTGSGSGTDFTLTISSVQAEDLAVYYCQNNYIYPFTFGGGTKLEIR	2.66	8640	0.019	46.8	5.39	14800	0.84	6870	0.108	93.8
ch-39C8 (antibody, V domains shown, also called chimeric antibody of clone 39C8) VH: QVQLQQSGAGLVKPGASVKISCKASGYAFSSYWMIWVKQRPGKGLEWIGQIYPGDGDTNYNGKFKGKATLTADKSSSTAFMQLSSLTSEDSAVYFCTRIYYGNAFAYWGQGTLVTVSA VL: DIVMTQSPSSLTVTAGEKVTMSCKSSQSLLNSGNQKNYLTWYQQKPGQPPKLLIYWASTRESGVPDRFTGSGSGTDFTLTISSVQAEDLAVYYCQNDYSYPFTFGSGTKLEIK	2.7	7820	0.022	34.5	20.1	17500	1.63	10600	0.177	94.8
ch-37G8 (antibody, V domains shown, also called chimeric antibody of clone 37G8) VH: EVQLQQSGPVLVKPGASVKMSCKASGYTFSDYHMNWVKQSHGKSLEWVGLINPYNGGIRFNQKFKGKATLTVDKSSSTAYMELNSLTSEDSAVYYCATIYYGNSFAYWGQGTLVTVSA VL: DIVMTQSPSSLTVTAGEKVTLTCKSGQSLLNSGNQKNYLTWYQQKPGQPPKLLIYWASTRESGVPDRFTGSGSGTDFTLTISGVQAEDLAVYYCQNDYFYPYTFGGGTKLEIK	5.05	10400	0.022	31.7	7	14400	1.71	8930	0.16	92.9
ch-40G7 (antibody, V domains shown, also called chimeric antibody of clone 40G7) VH: QVQLQQPGTELVKPGASVKLSCKASGYTFTNYWMHWVKQRPGHGLEWIGMIHPNSYSTNYNEKFRSKATLTVDKSSSTAYMQLSSLTSEDSAVYYCTRIYYGNAMDYWGQGTSVTVSS VL: DIVMTQSPSSLTVTAGERVTMSCKSSQSLFNSGNQKNYLTWYHQKPGQPPKLLIYWAFTRESGVPDRFTGSGSGTDFTLTIRSVQAEDLAVYYCQNDYSYPFTFGSGTKLEIK	2.31	7470	0.018	32.7	7.69	10100	1.11	10000	0.38	89.1
ch-42D2 (antibody, V domains shown, also called chimeric antibody of clone 42D2) VH: EVQLQQSGPVLVKPGASVKMSCKASGYTFTDYQMNWVKQSHGKSLEWIGFINPYNGGIRYNQKFKGKATLTVDKSSSTAYMELNSLTSEDSAVYYCATIYFGNSFANWGQGTLVTVSA VL: DIVMTQSPSSLTVTAGEKVTMSCKPSQSLLNSGNQKNYLTWYQQKPGQPPRLLIYWASTRESGVPDRFTGSGSGTDFTLTISSVQAEDLAVYYCQNDYIYPYTFGGGTNLEIK	2.42	10400	0.02	39.1	7.42	15700	0.764	7400	0.13	94.5

Other lines, results leading:

EC50 [1] [nM]	Mean maximum fluorescence intensity (Top MFI) [1] [MFI]	ADCC EC50 [2] [µg/mL]	ADCC Maximum lysis (%) [2] [%]	EC50 [3] [nM]	Mean maximum fluorescence intensity (Top MFI) [3] [MFI]	EC50 [4] [nM]	Mean maximum fluorescence intensity (Top MFI) [4] [MFI]	CDC EC50 [5] [µg/mL]	CDC Maximum lysis (%) [5] [%]	Binder
2.12	9970	0.01	36.6	15	17100	0.573	7640	0.065	95	ch-126A11 (antibody, V domains shown, also called chimeric antibody of clone 126A11) VH: QVQLKESGPGLVAPSQSLSITCTVSEFSLTTYGVSWVRQPPGKGLEWLGVIWGDGSTNYHSALISRLSISKDTSKSQVFLKLNSLQTDDTATYYCAKPGLRNAMDYWGQGTSVTVSS VL: DIVMTQSPSSLSVSAGEKVTMSCKSSQSLLNSGNQKNYLAWYQQKPGQPPKLLIYGASTRESGVPDRFTGSGSGTDFTLTISSVQAEDLAVYYCQNDLIYPLTFGAGTKLELK
2.92	9480	0.011	44.7	5.59	13600	1.76	14800	0.17	94.3	ch-48H1 (antibody, V domains shown, also called chimeric antibody of clone 48H1) VH: QVQLQQPGAELVKPGTSVKLSCKASGYIFTNYWTHWMKQRPGQGLEWIGMIHPNSGSSNYNEKFKSKATLTVDRSSSTVYMQLRRLTSEDSAVYYCTRIHYGNSMDYWGQGTSVTVSS VL: DIVMTQSPSSLTVTAGEKVTMSCKSSQSLFNSGNQKNYLTWYQQKPGQPPKLLIYWASTWESGVPDRFTGSGSGTDFTLTISSVQAEDLAVYYCQNAYSYPFTFGSGTKLEIK
2.2	8380	0.022	31.1	15.8	16500	0.948	8980	0.179	95.4	ch-252F11 (antibody, V domains shown, also called chimeric antibody of clone 252F11) VH: EIQLVESGGGLVRPGGSLKLSCAASGFSFKNYVMSWVRQSPERRLEWVAEIRTGGDYTYYVDTVTGRFTISRDNAKNTLYLEMTSLRSEDTATYYCARVGYGNSLDYWGQGTTLTVSS VL: DIVMTQSPSSLTVTAGEKVTMSCKSSQSLLNSGNQKNYLTWYQQKPGQPPKLLIYWASTRESGVPDRFTGSGSGTDFTLTISSVQAEDLAVYSCQNNYFYPLTFGAGTELELK
2.46	9870	0.023	29.1	10.7	15700	1.19	12700	0.165	96.1	ch-229C9 (antibody, V domains shown, also called chimeric antibody of clone 229C9) VH: DVQLQESGPDLVKPSQSLSLICTVTGYSITSGYSWHWIRQFPGNKLEWMGYIHYSGGTNYNPSLKSRISFTRDTSKNQFFLQLNSVTTEDTATYYCARLERGNSFAYWGQGTLVTVSA VL: DIVMTQSPSSLTVTAGEKVTMSCKSTQSLLNSGNQKNYLTWYQQKPGQPPKLLIYWASTRESGVPDRFTGSGSGTDFTLTISSLQAEDLAVYYCQNDYFYPFTFGSGTKLEIK
2.31	9270	0.021	36.7	4.55	14600	1.24	12700	0.139	94.8	ch-239E9 (antibody, V domains shown, also called chimeric antibody of clone 239E9) VH: QVQLQQSGPELVRPGVSVKISCKGSSYTFTDYTMHWVKQSHAKSLEWIGFIGVYYGNTNYNQKFKGKATMTVDKSSSTAYMELARLTSEDSAVYYCARIGRGNAMDYWGQGTSVTVSS VL: DIVMTQSPSSLTVTAGEKVTMSCKSSQSLLNSGNQKNYLTWYQQKPGQPPKLLIYWASTRESGVPDRFTGSGSGTDFTLTISSVQAEDLAVYNCQNAYSYPFTFGSGTKLEIK
2.46	8720	0.021	45.6	12.3	16800	0.702	6340	0.108	95.4	ch-76D11 (antibody, V domains shown, also called chimeric antibody of clone 76D11) VH: QVQLQQSGAELMKPGASVKLSCKASGYTFTGYWIEWIKQRPGHGLEWIGEILPGSGSIKYNEKFKDKATFTADTSSNTAYMQLSSLTTEDSAIYYCARKGLRGNSFDYWGQGTTLTVSS VL: DIVMTQSPSSLTVTAGEKVTMSCKSSQSLLNSGNQKNYLTWYQQKPGQPPKRLIYWASTRESGVPDRFTGSGSGTDFTLTISSVQAEDLAVYYCQNDYYYPFTFGSGTKLEIK
1.51	5590	0.064	48.5	5.35	7620	1.13	6090	0.206	89.8	ch-43F5 (antibody, V domains shown, also called chimeric antibody of clone 43F5) VH: QVQLQQPGAELVKPGTSVKLSCKASGYTFTSYWTHWVKQRPGQGLEWIGMIHPNSGSSNYNEKFKSKATLTVDKSSSTAYMQLRRLTSEDSAVYYCTRIHYGNAMDYWGQGTSVTVSS VL: DIVMTQSPSSLTVTAGEKVTMTCKSSQSLLNSGNQKNYLTWYQQKPGQPPKLLIYWASTRESGVPDRFTGSGSGTDFTLTISSVQAEDLAIYYCQNDYSFPFTFGSGTKLEIK
